± gives the standard deviation of the averaged measurements.
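Further: PSI is a weighted mean of sequencing reads over stability bins, variants kept only with over 10 reads, mCherry proximal and sfGFP distal, peptide attached via GGGS linker.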

This series deals with Saccharomyces cerevisiae. In words: protein stability index of tFT-peptide fusion (C-terminal peptide) (PSI (0-1 scale)); higher = more stable (slower turnover). The note with it: genetic background: wild type; temperature: 30 C.
In the case of KKKKKTKNIKKT, the protein stability index is 0.794 ± 0.059.
The sequence KKKKQKIKKQRK returned a protein stability index of 0.63 ± 0.00095.
To KKKKQKKKRKRE belongs 0.718 ± 0.028; to KKKKRKNNITKK, 0.74 ± 0.15; to KKKKTEKKKTKQ, 0.656 ± 0.035.
The same measure for KKKKVKKQRISR: 0.713 ± 0.11; for KKKMINEKKKKD: 0.701 ± 0.025; for KKKNKNENKKPQ: 0.667 ± 0.021.
To KKKNTRKTTNIK belongs 0.708 ± 0.026.
Take KKKQKKVSNKQT: the protein stability index amounted to 0.699 ± 0.044.
KKKRIRNEYKKR showed a protein stability index of 0.68 ± 0.0071.
To KKKTSKVIIREG belongs 0.689 ± 0.0085; to KKKVAITPQQTR, 0.685 ± 0.23.
As for KKMKKASTAKEL, the protein stability index was determined as 0.678 ± 0.025.
In turn, KKNAHANKIGND registered a protein stability index of 0.639 ± 0.086.
KKNEKKNRKKKN came in with a protein stability index of 0.71 ± 0.022.
For KKNKKNQKKKNK, the protein stability index came to 0.663 ± 0.0072.
Sequence KKNKLKDSIKNI came in with a protein stability index of 0.663 ± 0.016.
KKNKRMKVREKK displayed a protein stability index of 0.609 ± 0.034.
Sequence KKNLKTKKRQNI displayed a protein stability index of 0.66 ± 0.01.
As to KKNNKKNNKKKQ, the protein stability index was found to be 0.678 ± 0.078.
Turning to KKNQKKNEKHIK, the protein stability index stood at 0.689 ± 0.041.
For the sequence KKQKKKKKRNRK, the protein stability index came to 0.654 ± 0.028.
To KKRKKKEKKRKK belongs 0.773 ± 0.17; to KKRRTKKENNNI, 0.687 ± 0.0089.
In turn, KKSRLRNNPADC came in with a protein stability index of 0.7 ± 0.031.
KKTKNKKRIIRT had a protein stability index of 0.724 ± 0.051.
The sequence KKTLWRKITMQK displayed a protein stability index of 0.7193 ± 0.0057.
To KKTYQQKIEEVV belongs 0.782 ± 0.14; to KKVKMIKEIRRG, 0.745 ± 0.044.
KKVLKFTKKKKP had a protein stability index of 0.599 ± 0.048.
KLGNVRGPSYSL displayed a protein stability index of 0.709 ± 0.056.
Take KLGRIWNFTLSA: the protein stability index is 0.6284 ± 0.001.
Sequence KLKKKKISNVEN showed a protein stability index of 0.612 ± 0.0081.
KLNMLLYNNQEK gave a protein stability index of 0.631 ± 0.039.
On to KLREYGGLPISC, for which the protein stability index came out at 0.677 ± 0.0087.
The sequence KMKRSNADAVEP showed a protein stability index of 0.678 ± 0.03.
KNAAGERGGKEG showed a protein stability index of 0.644 ± 0.044.
To KNCKEQRKTIQI belongs 0.713 ± 0.026.
To KNDRKLIKRILK belongs 0.728 ± 0.093; to KNEKNERKIATQ, 0.682 ± 0.016.
Consider KNESIRKKKPKK, for which the protein stability index amounted to 0.734 ± 0.033.
Turning to KNGANREEYITK, the protein stability index is 0.686 ± 0.028.
KNIERKKNTKIR registered a protein stability index of 0.714 ± 0.017.
As for KNIRKITHGIGN, the protein stability index was found to be 0.623 ± 0.072.
With KNKKKKKRRTRK, the protein stability index is 0.732 ± 0.067.
The sequence KNQLKKPINKSK showed a protein stability index of 0.734 ± 0.13.
To KNRKSPSMNSKE belongs 0.716 ± 0.017; to KNTKKKNRKKKN, 0.7419 ± 0.0026.
KNTNQKKKKKNT: the protein stability index came out at 0.718 ± 0.044.
Regarding KNVKETERKVTS, the protein stability index is 0.565 ± 0.023.
Take KPKKKKKDEQTI: the protein stability index stood at 0.672 ± 0.035.
With KPPNRQCLYDAL, the protein stability index is 0.721 ± 0.094.
With KPVGLPGRIRLG, the protein stability index came out at 0.751 ± 0.02.
KQKKKRKSRRKK came in with a protein stability index of 0.6504 ± 0.0033.
Regarding KQKKTQKIYTMR, the protein stability index is 0.728 ± 0.059.
The sequence KQKNKTNKKNTK registered a protein stability index of 0.661 ± 0.025.
In turn, KQLEKRKRIIEE registered a protein stability index of 0.7644 ± 0.0035.
Sequence KQLPVLSAEVLS returned a protein stability index of 0.648 ± 0.035.
Regarding KQNAHKKINKYE, the protein stability index is 0.75 ± 0.02.
KQSNGEFNIATP displayed a protein stability index of 0.648 ± 0.046.
For KQTEKEPKKGES, the protein stability index came out at 0.7123 ± 0.0028.
As for KRCHPVYVRGGG, the protein stability index was 0.568 ± 0.013.
For KRDFILFSASVD, the protein stability index was found to be 0.627 ± 0.051.
KRDVRRLYRKRV displayed a protein stability index of 0.7052 ± 0.0068.
To KRGKKNEESRRD belongs 0.68 ± 0.085.
The sequence KRIVGIFINRKI had a protein stability index of 0.586 ± 0.0096.
KRKEKKKEKRRK gave a protein stability index of 0.714 ± 0.022.
The same measure for KRKKKKEQTKKK: 0.752 ± 0.11; for KRKKKRQKNKGK: 0.766 ± 0.13; for KRKKQERKREKK: 0.692 ± 0.05.
KRKKQKKNQQNR showed a protein stability index of 0.682 ± 0.019.
With KRKRKKKSEKEE, the protein stability index amounted to 0.652 ± 0.025.
As for KRLKRKSNLERE, the protein stability index is 0.69 ± 0.047.
The sequence KRMKNELDIGMK displayed a protein stability index of 0.7049 ± 0.0032.
The sequence KRNIKKKKTNLR had a protein stability index of 0.675 ± 0.087.
In turn, KRNKDFIYTYRL registered a protein stability index of 0.696 ± 0.013.
As for KRQWAGRDGEGR, the protein stability index is 0.662 ± 0.0068.
KRRGECEGGRRG displayed a protein stability index of 0.672 ± 0.044.
KRRKKTQESSKA yielded a protein stability index of 0.726 ± 0.049.

Values taken from the supplement of paper PMC10724198.
